From paper PMC8794255, “Small molecule inhibitor of Igf2bp1 represses Kras and a pro-oncogenic phenotype in cancer cells” (RNA Biology, 2021)

Experiments:
[1] = target: Igf2bp1 (human) (UniProt Q9NZI8); assay: competition; conditions: MST/EMSA: 10 mM Tris pH 7.5, 100 mM NaCl, 0.1 mM EDTA, IGEPAL, tRNA, heparin, 0.5-2 mM DTT, room temperature (MST protein in PBST mixed 1:1); FP: 10 mM Tris pH …
[2] = system: Igf2bp1 (human); assay: MST; conditions: MST/EMSA: 10 mM Tris pH 7.5, 100 mM NaCl, 0.1 mM EDTA, IGEPAL, tRNA, heparin, 0.5-2 mM DTT, room temperature (MST protein in PBST mixed 1:1), FP: 10 mM Tris pH …
[3] = system: Igf2bp1 KH34 (human); assay: MST; conditions: MST/EMSA: 10 mM Tris pH 7.5, 100 mM NaCl, 0.1 mM EDTA, IGEPAL, tRNA, heparin, 0.5-2 mM DTT, room temperature (MST protein in PBST mixed 1:1); FP: 10 mM Tris pH …

Chain of Igf2bp1 (human) (UniProt Q9NZI8) (Q9NZI8 whole entry): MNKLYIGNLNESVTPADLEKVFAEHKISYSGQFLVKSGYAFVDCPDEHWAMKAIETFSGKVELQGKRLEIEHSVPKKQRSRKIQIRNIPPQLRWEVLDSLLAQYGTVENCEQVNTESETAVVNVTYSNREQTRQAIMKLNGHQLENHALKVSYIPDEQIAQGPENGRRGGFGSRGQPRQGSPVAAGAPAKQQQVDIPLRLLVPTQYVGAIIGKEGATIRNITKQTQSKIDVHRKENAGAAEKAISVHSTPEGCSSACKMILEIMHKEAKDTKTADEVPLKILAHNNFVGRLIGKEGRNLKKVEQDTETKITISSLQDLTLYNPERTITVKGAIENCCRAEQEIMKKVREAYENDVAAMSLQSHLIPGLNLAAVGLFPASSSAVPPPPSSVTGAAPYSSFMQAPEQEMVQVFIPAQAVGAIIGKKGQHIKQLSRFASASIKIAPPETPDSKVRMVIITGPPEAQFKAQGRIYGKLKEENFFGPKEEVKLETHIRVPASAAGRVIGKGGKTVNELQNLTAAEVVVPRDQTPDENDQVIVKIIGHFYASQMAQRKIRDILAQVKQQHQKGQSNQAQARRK

Substance	binding [1]	Kd ([2]; 50 uM 7773) [µM]	Kd ([2]; 100 uM 7773) [µM]	Kd [2] [µM]	Kd ([2]; no compound) [µM]	Kd [3] [µM]
GGGUGAGGAGUACAGUGCAAUGAGGGACCAGUACAUGAGGACUGGGGAGGGCUUUCUUUGUGUAUUUGCCAUAAAUAAUACUAAAUCAUUUGAAGAUAUUCACCAUUAUAGAGAACAAAUUAAAAGAGUUAAGGACUCUGAAGAUGUACCUAUGGUCCUAGUAGGAAAUAAAUGUGAUUUGCCUUCUAGAACAGUAGACACAA [Kras 2 RNA]	binds more weakly	–	–	–	–	–
Kras 6 RNA	–	0.063	0.12	0.02	0.056	0.2
